# What was measured:
# [1] = molecular target: human FcγRIIIa (V158 allele) (human) (UniProt P08637); experiment: MSD [cont'd]
# human FcRn (human) [2] = molecular target: human FcRn (human) (UniProt P55899); experiment: MSD [cont'd]
# [3] = molecular target: human FcγRIIa (R131 allele) (human) (UniProt P12318); experiment: MSD [cont'd]
# [4] = molecular target: human FcγRIIIa (F158 allele) (human) (UniProt P08637); experiment: MSD [cont'd]
# human FcγRIIb (human) [5] = molecular target: human FcγRIIb (human) (UniProt P31994); experiment: MSD [cont'd]
# [6] = molecular target: human FcγRIIa (H131 allele) (human) (UniProt P12318); experiment: MSD [cont'd]
# human FcγRIIIb (human) [7] = molecular target: human FcγRIIIb (human) (UniProt O75015); experiment: MSD [cont'd]
# human C1q (human) [8] = molecular target: human C1q (human) (UniProt P02745); experiment: MSD [cont'd]
# [9] = molecular target: human FcγRIIIa (V158 allele) (human) (UniProt P08637)
# [10] = molecular target: human FcγRIIIa (F158 allele) (human) (UniProt P08637)
# human FcγRIIb (human) [11] = molecular target: human FcγRIIb (human) (UniProt P31994)
# [12] = molecular target: human FcγRIIa (H131 allele) (human) (UniProt P12318)
# human FcRn (human) [13] = molecular target: human FcRn (human) (UniProt P55899); experiment: MSD, pH 6 [cont'd]
# [14] = molecular target: human FcγRIIIa (V158 allele) (human) (UniProt P08637); experiment: MSD
# human FcRn (human) [15] = molecular target: human FcRn (human) (UniProt P55899); experiment: MSD
# [16] = molecular target: human FcγRIIa (R131 allele) (human) (UniProt P12318); experiment: MSD
# [17] = molecular target: human FcγRIIIa (F158 allele) (human) (UniProt P08637); experiment: MSD
# human FcγRIIb (human) [18] = molecular target: human FcγRIIb (human) (UniProt P31994); experiment: MSD
# [19] = molecular target: human FcγRIIa (H131 allele) (human) (UniProt P12318); experiment: MSD
# human FcγRIIIb (human) [20] = molecular target: human FcγRIIIb (human) (UniProt O75015); experiment: MSD
# human C1q (human) [21] = molecular target: human C1q (human) (UniProt P02745); experiment: MSD
# [22] = molecular target: human FcγRIIa (R131 allele) (human) (UniProt P12318); experiment: Table B summary, vs fucosylated wild-type human IgG1
# [23] = molecular target: human FcγRIIa (H131 allele) (human) (UniProt P12318); experiment: as above
# Chain of human FcγRIIa (H131 allele) (human) (P12318 34-218 limits assumed): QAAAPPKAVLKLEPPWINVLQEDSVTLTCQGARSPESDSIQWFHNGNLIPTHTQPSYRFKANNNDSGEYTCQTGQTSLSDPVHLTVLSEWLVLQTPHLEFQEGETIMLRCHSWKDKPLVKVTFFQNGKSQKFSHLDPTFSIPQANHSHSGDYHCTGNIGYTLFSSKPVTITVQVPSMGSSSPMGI
# Chain of human FcγRIIIa (V158 allele) (human) (P08637 17-208 F176V limits assumed): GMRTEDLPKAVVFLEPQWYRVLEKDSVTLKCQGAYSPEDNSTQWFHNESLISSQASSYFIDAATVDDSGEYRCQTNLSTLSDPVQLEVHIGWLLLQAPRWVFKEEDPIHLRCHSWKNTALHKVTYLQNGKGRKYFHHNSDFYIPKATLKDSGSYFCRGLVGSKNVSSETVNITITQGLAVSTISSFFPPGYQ
# Chain of human FcγRIIb (human) (P31994 43-217 limits assumed): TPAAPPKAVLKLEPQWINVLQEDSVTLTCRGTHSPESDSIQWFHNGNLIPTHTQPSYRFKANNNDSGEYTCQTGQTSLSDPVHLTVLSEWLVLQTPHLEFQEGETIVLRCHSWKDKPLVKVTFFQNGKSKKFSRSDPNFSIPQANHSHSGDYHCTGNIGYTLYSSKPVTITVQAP
# Chain of human FcRn (human) (P55899 24-297 limits assumed, chain 1 of 2): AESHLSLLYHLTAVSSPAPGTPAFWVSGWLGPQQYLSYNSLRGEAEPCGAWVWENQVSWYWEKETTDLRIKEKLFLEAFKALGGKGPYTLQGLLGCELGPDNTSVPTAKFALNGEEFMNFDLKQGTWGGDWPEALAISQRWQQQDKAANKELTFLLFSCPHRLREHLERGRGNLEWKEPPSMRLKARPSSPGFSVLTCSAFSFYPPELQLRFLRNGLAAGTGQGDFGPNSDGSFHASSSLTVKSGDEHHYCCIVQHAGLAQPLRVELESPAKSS
# Chain of human FcRn (human) (chain, as listed by the source limits assumed, chain 2 of 2): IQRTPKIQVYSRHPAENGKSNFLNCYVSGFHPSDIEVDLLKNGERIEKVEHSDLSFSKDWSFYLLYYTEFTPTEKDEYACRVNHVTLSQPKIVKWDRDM
# Chain of human FcγRIIIa (F158 allele) (human) (P08637 17-208 limits assumed): as the sequence (P08637 17-208 F176V limits assumed) above, with V160F counted along it
# Chain of human FcγRIIa (R131 allele) (human) (P12318 34-218 H167R limits assumed): as the sequence (P12318 34-218 limits assumed) above, with H134R counted along it
# Chain of human C1q (human) (P02745 23-245 limits assumed, chain 1 of 3): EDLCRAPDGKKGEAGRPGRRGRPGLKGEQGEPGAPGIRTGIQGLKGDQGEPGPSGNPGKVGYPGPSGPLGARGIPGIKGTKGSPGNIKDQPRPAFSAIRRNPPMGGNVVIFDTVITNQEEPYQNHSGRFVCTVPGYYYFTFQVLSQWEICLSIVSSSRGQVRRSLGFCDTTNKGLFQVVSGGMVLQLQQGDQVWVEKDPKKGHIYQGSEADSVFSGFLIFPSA
# Chain of human C1q (human) (P02746 28-253 limits assumed, chain 2 of 3, further chain): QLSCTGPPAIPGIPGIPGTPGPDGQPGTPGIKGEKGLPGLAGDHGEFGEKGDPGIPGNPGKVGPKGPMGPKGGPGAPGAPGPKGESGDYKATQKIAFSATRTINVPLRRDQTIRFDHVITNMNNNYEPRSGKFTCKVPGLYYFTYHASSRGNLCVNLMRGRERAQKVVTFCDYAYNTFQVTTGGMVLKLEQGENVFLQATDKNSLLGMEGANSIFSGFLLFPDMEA
# Chain of human C1q (human) (P02747 29-245 limits assumed, chain 3 of 3, further chain): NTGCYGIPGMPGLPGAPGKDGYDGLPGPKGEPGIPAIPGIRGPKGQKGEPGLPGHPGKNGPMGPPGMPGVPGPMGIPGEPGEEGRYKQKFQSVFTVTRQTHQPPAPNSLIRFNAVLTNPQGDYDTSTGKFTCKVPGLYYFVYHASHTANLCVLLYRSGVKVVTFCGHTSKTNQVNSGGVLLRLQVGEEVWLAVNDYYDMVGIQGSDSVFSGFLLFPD
# Chain of human FcγRIIIb (human) (O75015 17-200 limits assumed): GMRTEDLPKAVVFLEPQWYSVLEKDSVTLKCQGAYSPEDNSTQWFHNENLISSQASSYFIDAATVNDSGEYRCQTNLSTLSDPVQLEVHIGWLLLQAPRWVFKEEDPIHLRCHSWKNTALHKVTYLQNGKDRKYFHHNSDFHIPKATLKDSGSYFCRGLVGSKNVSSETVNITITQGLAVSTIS
substance,measurement,setting,value
IgG1 antibody with Fc variant G236A_R292P_Y300L,fold-change to WT Fc,[1],2.69 fold
same,fold-change vs wt,[1],2.69 fold
same,fold-change vs wt,human FcRn (human) [2],0.83 fold
same,fold-change vs wt,[3],2.71 fold
same,fold-change to WT Fc,[4],3.71 fold
same,fold-change vs wt,[4],3.71 fold
same,fold-change vs wt,human FcγRIIb (human) [5],0.94 fold
same,fold-change vs wt,[6],14.2 fold
same,fold-change vs wt,human FcγRIIIb (human) [7],1.03 fold
same,fold-change to WT Fc,human C1q (human) [8],1.01 fold
same,fold-change vs wt,human C1q (human) [8],1.01 fold
same,"FcγR reporter signaling, fold-change vs wt [cont'd]",[9],2.83 fold
same,"FcγR reporter signaling, fold-change vs wt [cont'd]",[10],6.15 fold
same,"FcγR reporter signaling, fold-change vs wt [cont'd]",human FcγRIIb (human) [11],1.01 fold
same,"FcγR reporter signaling, fold-change vs wt [cont'd]",[12],1.87 fold
same,fold-change to WT Fc,human FcRn (human) [13],0.828 fold
same,fold-change vs FY1 rIgG1m3,[14],2.7 fold
same,fold-change vs FY1 rIgG1m3,human FcRn (human) [15],0.8 fold
same,fold-change to WT Fc,[16],2.71 fold
same,fold-change vs FY1 rIgG1m3,[16],2.7 fold
same,fold-change vs FY1 rIgG1m3,[17],3.7 fold
same,fold-change to WT Fc,human FcγRIIb (human) [18],0.94 fold
same,fold-change vs FY1 rIgG1m3,human FcγRIIb (human) [18],0.9 fold
same,fold-change to WT Fc,[19],14.2 fold
same,fold-change vs FY1 rIgG1m3,[19],14.2 fold
same,fold-change vs FY1 rIgG1m3,human FcγRIIIb (human) [20],1.03 fold
same,fold-change vs FY1 rIgG1m3,human C1q (human) [21],1.01 fold
same,fold-change in binding vs fucosylated wild-type human IgG1,[22],2.7 fold
same,fold-change in binding vs fucosylated wild-type human IgG1,[23],14 fold
